{"source": "the supplement of paper PMC9112550", "about": "“Optimization of the antimicrobial peptide Bac7 by deep mutational scanning” (BMC Biology, 2022);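 note: peptides expressed intracellularly from a pBAD plasmid library in pooled LB shake-flask culture, induced with 0.3% L-arabinose, DNA abundance read by NGS, three biological replicates, DESeq2 with apeglm shrinkage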"}
{"tested_on": "Escherichia coli TOP10", "test": "shrunken log2 fold change of peptide-encoding DNA abundance (4.5 h post-induction vs induction); higher = less antimicrobial activity (less host growth inhibition)", "settings": "time post-induction: 4.5 h; library: site-saturation at positions 5, 18, 19, 20"}
{"sequence": "RRIRCRPPRLPRPRPRPGITPRP", "shrunken log2 fold change": -0.232}
{"sequence": "RRIRYRPPRLPRPRPRPNPEPRP", "shrunken log2 fold change": -0.0105}
{"sequence": "RRIRNRPPRLPRPRPRPMGAPRP", "shrunken log2 fold change": 0.115}
{"sequence": "RRIRWRPPRLPRPRPRPNEWPRP", "shrunken log2 fold change": -0.0242}
{"sequence": "RRIRCRPPRLPRPRPRPTNGPRP", "shrunken log2 fold change": -0.0378}
{"sequence": "RRIRVRPPRLPRPRPRPTPEPRP", "shrunken log2 fold change": 0.639}
{"sequence": "RRIRRRPPRLPRPRPRPNATPRP", "shrunken log2 fold change": 0.703}
{"sequence": "RRIRGRPPRLPRPRPRPECIPRP", "shrunken log2 fold change": 1.67}
{"sequence": "RRIRQRPPRLPRPRPRPLQTPRP", "shrunken log2 fold change": -0.339}
{"sequence": "RRIRDRPPRLPRPRPRPISTPRP", "shrunken log2 fold change": -0.146}
{"sequence": "RRIRTRPPRLPRPRPRPGQFPRP", "shrunken log2 fold change": -0.182}
{"sequence": "RRIRWRPPRLPRPRPRPLPRPRP", "shrunken log2 fold change": 0.534}
{"sequence": "RRIRWRPPRLPRPRPRPPMTPRP", "shrunken log2 fold change": 0.257}
{"sequence": "RRIRVRPPRLPRPRPRPRWFPRP", "shrunken log2 fold change": -0.0978}
{"sequence": "RRIRRRPPRLPRPRPRPHWMPRP", "shrunken log2 fold change": 0.122}
{"sequence": "RRIRCRPPRLPRPRPRPLSCPRP", "shrunken log2 fold change": -0.184}
{"sequence": "RRIRYRPPRLPRPRPRPPRLPRP", "shrunken log2 fold change": 0.0944}
{"sequence": "RRIRDRPPRLPRPRPRPACCPRP", "shrunken log2 fold change": 0.512}
{"sequence": "RRIRYRPPRLPRPRPRPSQVPRP", "shrunken log2 fold change": -0.518}
{"sequence": "RRIRHRPPRLPRPRPRPDLVPRP", "shrunken log2 fold change": -0.104}
{"sequence": "RRIRMRPPRLPRPRPRPTCRPRP", "shrunken log2 fold change": 0.32}
{"sequence": "RRIRFRPPRLPRPRPRPVFAPRP", "shrunken log2 fold change": 0.158}
{"sequence": "RRIRTRPPRLPRPRPRPFYKPRP", "shrunken log2 fold change": -0.6}
{"sequence": "RRIRLRPPRLPRPRPRPCKLPRP", "shrunken log2 fold change": -0.114}
{"sequence": "RRIRTRPPRLPRPRPRPFEQPRP", "shrunken log2 fold change": -0.225}
{"sequence": "RRIRCRPPRLPRPRPRPSHFPRP", "shrunken log2 fold change": -0.345}
{"sequence": "RRIRPRPPRLPRPRPRPPEQPRP", "shrunken log2 fold change": 0.206}
{"sequence": "RRIRRRPPRLPRPRPRPFPRPRP", "shrunken log2 fold change": 0.272}
{"sequence": "RRIRMRPPRLPRPRPRPKCEPRP", "shrunken log2 fold change": 0.52}
{"sequence": "RRIRSRPPRLPRPRPRPDSKPRP", "shrunken log2 fold change": 1.02}
{"sequence": "RRIRVRPPRLPRPRPRPEFEPRP", "shrunken log2 fold change": -0.0823}
{"sequence": "RRIRGRPPRLPRPRPRPDWQPRP", "shrunken log2 fold change": 0.336}
{"sequence": "RRIRMRPPRLPRPRPRPWPVPRP", "shrunken log2 fold change": 0.287}
{"sequence": "RRIRERPPRLPRPRPRPKAQPRP", "shrunken log2 fold change": 0.221}
{"sequence": "RRIRERPPRLPRPRPRPIPKPRP", "shrunken log2 fold change": 0.65}
{"sequence": "RRIRDRPPRLPRPRPRPNTKPRP", "shrunken log2 fold change": -0.124}
{"sequence": "RRIRWRPPRLPRPRPRPLIKPRP", "shrunken log2 fold change": 0.114}
{"sequence": "RRIRHRPPRLPRPRPRPFESPRP", "shrunken log2 fold change": -0.00822}
{"sequence": "RRIRFRPPRLPRPRPRPMGIPRP", "shrunken log2 fold change": -0.23}
{"sequence": "RRIRNRPPRLPRPRPRPVYAPRP", "shrunken log2 fold change": -0.128}
{"sequence": "RRIRARPPRLPRPRPRPYLYPRP", "shrunken log2 fold change": -0.312}
{"sequence": "RRIRFRPPRLPRPRPRPHDRPRP", "shrunken log2 fold change": 0.0063}
{"sequence": "RRIRKRPPRLPRPRPRPVETPRP", "shrunken log2 fold change": 0.416}
{"sequence": "RRIRIRPPRLPRPRPRPAGKPRP", "shrunken log2 fold change": 0.0304}
{"sequence": "RRIRFRPPRLPRPRPRPWVKPRP", "shrunken log2 fold change": -0.00968}
{"sequence": "RRIRIRPPRLPRPRPRPCVSPRP", "shrunken log2 fold change": -0.012}
{"sequence": "RRIRPRPPRLPRPRPRPERLPRP", "shrunken log2 fold change": 0.0284}
{"sequence": "RRIRHRPPRLPRPRPRPCICPRP", "shrunken log2 fold change": -0.347}
{"sequence": "RRIRTRPPRLPRPRPRPCMCPRP", "shrunken log2 fold change": -0.222}
{"sequence": "RRIRMRPPRLPRPRPRPGIPPRP", "shrunken log2 fold change": 0.726}
{"sequence": "RRIRWRPPRLPRPRPRPVTLPRP", "shrunken log2 fold change": -0.147}
{"sequence": "RRIRWRPPRLPRPRPRPIRWPRP", "shrunken log2 fold change": 0.0855}
{"sequence": "RRIRSRPPRLPRPRPRPTGHPRP", "shrunken log2 fold change": -0.0852}
{"sequence": "RRIRPRPPRLPRPRPRPDMYPRP", "shrunken log2 fold change": -0.192}
{"sequence": "RRIRFRPPRLPRPRPRPWQTPRP", "shrunken log2 fold change": -0.0222}
{"sequence": "RRIRMRPPRLPRPRPRPFMPPRP", "shrunken log2 fold change": -0.127}
{"sequence": "RRIRFRPPRLPRPRPRPYARPRP", "shrunken log2 fold change": 0.0368}
{"sequence": "RRIRERPPRLPRPRPRPNEGPRP", "shrunken log2 fold change": -0.0857}
{"sequence": "RRIRKRPPRLPRPRPRPGTIPRP", "shrunken log2 fold change": -0.0588}
{"sequence": "RRIRYRPPRLPRPRPRPMQTPRP", "shrunken log2 fold change": -0.0135}
{"sequence": "RRIRWRPPRLPRPRPRPSRRPRP", "shrunken log2 fold change": 0.215}
{"sequence": "RRIRHRPPRLPRPRPRPCMIPRP", "shrunken log2 fold change": -0.277}
{"sequence": "RRIRQRPPRLPRPRPRPAGNPRP", "shrunken log2 fold change": -0.0449}
{"sequence": "RRIRERPPRLPRPRPRPQDIPRP", "shrunken log2 fold change": -0.135}
{"sequence": "RRIRKRPPRLPRPRPRPVHEPRP", "shrunken log2 fold change": 0.325}
{"sequence": "RRIRIRPPRLPRPRPRPINHPRP", "shrunken log2 fold change": -0.683}
{"sequence": "RRIRERPPRLPRPRPRPLWNPRP", "shrunken log2 fold change": -0.298}
{"sequence": "RRIRIRPPRLPRPRPRPSANPRP", "shrunken log2 fold change": -0.15}
{"sequence": "RRIRNRPPRLPRPRPRPKSGPRP", "shrunken log2 fold change": 0.161}
{"sequence": "RRIRCRPPRLPRPRPRPVSMPRP", "shrunken log2 fold change": -0.0967}
{"sequence": "RRIRNRPPRLPRPRPRPDHAPRP", "shrunken log2 fold change": -0.0118}
{"sequence": "RRIRWRPPRLPRPRPRPGNKPRP", "shrunken log2 fold change": -0.0586}
{"sequence": "RRIRLRPPRLPRPRPRPEEGPRP", "shrunken log2 fold change": -0.115}
{"sequence": "RRIRNRPPRLPRPRPRPTNEPRP", "shrunken log2 fold change": 0.239}
{"sequence": "RRIRVRPPRLPRPRPRPTTGPRP", "shrunken log2 fold change": 0.141}
